T1: EsCas13d, nuclease-dead (Eubacterium siraeum, UniProt B0MS50, R295A;H300A;R849A;H854A)
T1 sequence: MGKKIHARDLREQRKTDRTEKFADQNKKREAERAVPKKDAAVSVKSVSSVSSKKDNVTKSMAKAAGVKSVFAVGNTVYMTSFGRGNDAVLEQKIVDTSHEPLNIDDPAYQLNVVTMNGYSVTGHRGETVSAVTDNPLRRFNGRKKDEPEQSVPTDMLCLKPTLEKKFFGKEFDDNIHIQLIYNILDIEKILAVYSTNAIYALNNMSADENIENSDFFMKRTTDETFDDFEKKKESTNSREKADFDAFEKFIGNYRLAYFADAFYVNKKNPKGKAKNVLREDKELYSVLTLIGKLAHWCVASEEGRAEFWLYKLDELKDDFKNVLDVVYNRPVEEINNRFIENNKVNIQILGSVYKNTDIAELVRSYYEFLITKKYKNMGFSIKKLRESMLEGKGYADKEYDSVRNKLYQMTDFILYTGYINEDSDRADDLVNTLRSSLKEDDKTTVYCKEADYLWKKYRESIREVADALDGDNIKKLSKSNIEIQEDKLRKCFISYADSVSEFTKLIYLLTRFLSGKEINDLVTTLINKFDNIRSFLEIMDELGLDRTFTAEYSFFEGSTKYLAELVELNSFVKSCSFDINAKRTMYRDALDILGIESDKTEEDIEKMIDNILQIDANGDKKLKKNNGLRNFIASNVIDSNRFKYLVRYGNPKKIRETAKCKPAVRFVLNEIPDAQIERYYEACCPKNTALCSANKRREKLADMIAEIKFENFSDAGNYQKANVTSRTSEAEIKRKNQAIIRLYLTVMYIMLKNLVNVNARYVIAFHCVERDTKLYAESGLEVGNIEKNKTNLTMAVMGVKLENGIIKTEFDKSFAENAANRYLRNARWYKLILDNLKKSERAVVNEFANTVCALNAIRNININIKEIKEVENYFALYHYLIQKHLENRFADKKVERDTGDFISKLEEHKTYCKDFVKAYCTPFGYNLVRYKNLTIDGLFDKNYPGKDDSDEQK

B1: target 2 MT 5'PFS GUC 3'PFS CUU (mixed)
RNA 1: CACCCGUGCAAAAUUGCAGGGGUCUAAAACCUUCUCCAAAUUGUUUCAUCCU
RNA 2: GGGAAUGGAUCCACAUCUACGAAUUCGUCAGGAUGAAACAAUUUGGAGAAGCUUAGAUCGGAAGAGCACACGU
B2: target 2 MT 5'PFS ACA 3'PFS CGG (mixed)
RNA 1: CACCCGUGCAAAAUUGCAGGGGUCUAAAACCUUCUCCAAAUUGUUUCAUCCU
RNA 2: GGGAAUGGAUCCACAUCUACGAAUUCACAAGGAUGAAACAAUUUGGAGAAGCGGAGAUCGGAAGAGCACACGU
B3: target 2 MT 5'PFS UAU 3'PFS GAG (mixed)
RNA 1: CACCCGUGCAAAAUUGCAGGGGUCUAAAACCUUCUCCAAAUUGUUUCAUCCU
RNA 2: GGGAAUGGAUCCACAUCUACGAAUUCUAUAGGAUGAAACAAUUUGGAGAAGGAGAGAUCGGAAGAGCACACGU
B4: target 2 MT 5'PFS ACA 3'PFS AGG (mixed)
RNA 1: CACCCGUGCAAAAUUGCAGGGGUCUAAAACCUUCUCCAAAUUGUUUCAUCCU
RNA 2: GGGAAUGGAUCCACAUCUACGAAUUCACAAGGAUGAAACAAUUUGGAGAAGAGGAGAUCGGAAGAGCACACGU
B5: target 2 MT 5'PFS ACA 3'PFS AGA (mixed)
RNA 1: CACCCGUGCAAAAUUGCAGGGGUCUAAAACCUUCUCCAAAUUGUUUCAUCCU
RNA 2: GGGAAUGGAUCCACAUCUACGAAUUCACAAGGAUGAAACAAUUUGGAGAAGAGAAGAUCGGAAGAGCACACGU
B6: target 2 MT 5'PFS CGC 3'PFS CUA (mixed)
RNA 1: CACCCGUGCAAAAUUGCAGGGGUCUAAAACCUUCUCCAAAUUGUUUCAUCCU
RNA 2: GGGAAUGGAUCCACAUCUACGAAUUCCGCAGGAUGAAACAAUUUGGAGAAGCUAAGAUCGGAAGAGCACACGU
B7: target 2 MT 5'PFS UGU 3'PFS AUC (mixed)
RNA 1: CACCCGUGCAAAAUUGCAGGGGUCUAAAACCUUCUCCAAAUUGUUUCAUCCU
RNA 2: GGGAAUGGAUCCACAUCUACGAAUUCUGUAGGAUGAAACAAUUUGGAGAAGAUCAGAUCGGAAGAGCACACGU
B8: target 2 MT 5'PFS ACA 3'PFS CGC (mixed)
RNA 1: CACCCGUGCAAAAUUGCAGGGGUCUAAAACCUUCUCCAAAUUGUUUCAUCCU
RNA 2: GGGAAUGGAUCCACAUCUACGAAUUCACAAGGAUGAAACAAUUUGGAGAAGCGCAGAUCGGAAGAGCACACGU
B9: target 2 MT 5'PFS CGC 3'PFS CUG (mixed)
RNA 1: CACCCGUGCAAAAUUGCAGGGGUCUAAAACCUUCUCCAAAUUGUUUCAUCCU
RNA 2: GGGAAUGGAUCCACAUCUACGAAUUCCGCAGGAUGAAACAAUUUGGAGAAGCUGAGAUCGGAAGAGCACACGU
B10: target 2 MT 5'PFS GCA 3'PFS CUU (mixed)
RNA 1: CACCCGUGCAAAAUUGCAGGGGUCUAAAACCUUCUCCAAAUUGUUUCAUCCU
RNA 2: GGGAAUGGAUCCACAUCUACGAAUUCGCAAGGAUGAAACAAUUUGGAGAAGCUUAGAUCGGAAGAGCACACGU
B11: target 2 MT 5'PFS UUA 3'PFS UUA (mixed)
RNA 1: CACCCGUGCAAAAUUGCAGGGGUCUAAAACCUUCUCCAAAUUGUUUCAUCCU
RNA 2: GGGAAUGGAUCCACAUCUACGAAUUCUUAAGGAUGAAACAAUUUGGAGAAGUUAAGAUCGGAAGAGCACACGU
B12: target 2 MT 5'PFS AGA 3'PFS UCG (mixed)
RNA 1: CACCCGUGCAAAAUUGCAGGGGUCUAAAACCUUCUCCAAAUUGUUUCAUCCU
RNA 2: GGGAAUGGAUCCACAUCUACGAAUUCAGAAGGAUGAAACAAUUUGGAGAAGUCGAGAUCGGAAGAGCACACGU
B13: target 2 MT 5'PFS GCU 3'PFS UUC (mixed)
RNA 1: CACCCGUGCAAAAUUGCAGGGGUCUAAAACCUUCUCCAAAUUGUUUCAUCCU
RNA 2: GGGAAUGGAUCCACAUCUACGAAUUCGCUAGGAUGAAACAAUUUGGAGAAGUUCAGAUCGGAAGAGCACACGU
B14: target 2 MT 5'PFS GCU 3'PFS UAU (mixed)
RNA 1: CACCCGUGCAAAAUUGCAGGGGUCUAAAACCUUCUCCAAAUUGUUUCAUCCU
RNA 2: GGGAAUGGAUCCACAUCUACGAAUUCGCUAGGAUGAAACAAUUUGGAGAAGUAUAGAUCGGAAGAGCACACGU
B15: target 2 MT 5'PFS UUA 3'PFS UUG (mixed)
RNA 1: CACCCGUGCAAAAUUGCAGGGGUCUAAAACCUUCUCCAAAUUGUUUCAUCCU
RNA 2: GGGAAUGGAUCCACAUCUACGAAUUCUUAAGGAUGAAACAAUUUGGAGAAGUUGAGAUCGGAAGAGCACACGU
B16: target 2 MT 5'PFS AGA 3'PFS UCC (mixed)
RNA 1: CACCCGUGCAAAAUUGCAGGGGUCUAAAACCUUCUCCAAAUUGUUUCAUCCU
RNA 2: GGGAAUGGAUCCACAUCUACGAAUUCAGAAGGAUGAAACAAUUUGGAGAAGUCCAGAUCGGAAGAGCACACGU
B17: target 2 MT 5'PFS UGG 3'PFS AAC (mixed)
RNA 1: CACCCGUGCAAAAUUGCAGGGGUCUAAAACCUUCUCCAAAUUGUUUCAUCCU
RNA 2: GGGAAUGGAUCCACAUCUACGAAUUCUGGAGGAUGAAACAAUUUGGAGAAGAACAGAUCGGAAGAGCACACGU
B18: target 2 MT 5'PFS CGC 3'PFS CUC (mixed)
RNA 1: CACCCGUGCAAAAUUGCAGGGGUCUAAAACCUUCUCCAAAUUGUUUCAUCCU
RNA 2: GGGAAUGGAUCCACAUCUACGAAUUCCGCAGGAUGAAACAAUUUGGAGAAGCUCAGAUCGGAAGAGCACACGU
B19: target 2 MT 5'PFS ACA 3'PFS AGC (mixed)
RNA 1: CACCCGUGCAAAAUUGCAGGGGUCUAAAACCUUCUCCAAAUUGUUUCAUCCU
RNA 2: GGGAAUGGAUCCACAUCUACGAAUUCACAAGGAUGAAACAAUUUGGAGAAGAGCAGAUCGGAAGAGCACACGU
B20: target 2 MT 5'PFS UUA 3'PFS UUU (mixed)
RNA 1: CACCCGUGCAAAAUUGCAGGGGUCUAAAACCUUCUCCAAAUUGUUUCAUCCU
RNA 2: GGGAAUGGAUCCACAUCUACGAAUUCUUAAGGAUGAAACAAUUUGGAGAAGUUUAGAUCGGAAGAGCACACGU
B21: target 2 MT 5'PFS AGA 3'PFS UCA (mixed)
RNA 1: CACCCGUGCAAAAUUGCAGGGGUCUAAAACCUUCUCCAAAUUGUUUCAUCCU
RNA 2: GGGAAUGGAUCCACAUCUACGAAUUCAGAAGGAUGAAACAAUUUGGAGAAGUCAAGAUCGGAAGAGCACACGU
B22: target 1 insC 3' of 8,insG 3' of 3 (mixed)
RNA 1: CACCCGUGCAAAAAUGCAGGGGUCUAAAACUGAGCGGAUAACCUCUCUAUGG
RNA 2: GGGAAUGGAUCCACAUCUACGAAUUCGUACCAUAGAGAGGUUAUCCCGCUGCACCGAGAUCGGAAGAGCACACGU
B23: target 1 G5C,C21U (mixed)
RNA 1: CACCCGUGCAAAAAUGCAGGGGUCUAAAACUGAGCGGAUAACCUCUCUAUGG
RNA 2: GGGAAUGGAUCCACAUCUACGAAUUCGUACUAUAGAGAGGUUAUCCCCUCACCGAGAUCGGAAGAGCACACGU
B24: target 1 insC 3' of 20,insU 3' of 1 (mixed)
RNA 1: CACCCGUGCAAAAAUGCAGGGGUCUAAAACUGAGCGGAUAACCUCUCUAUGG
RNA 2: GGGAAUGGAUCCACAUCUACGAAUUCGUACCACUAGAGAGGUUAUCCGCUCAUCCGAGAUCGGAAGAGCACACGU

Each binder was assayed against T1, EsCas13d, nuclease-dead (assay: crRNA (strand 1, pre-loaded); Mg2+; 40 mM Tris-HCl pH 7.5, 150 mM NaCl, 6 mM MgCl2, 1 mM DTT, 0.1% Tween-20, 0.2 mg/ml BSA; 25 C; 10 min per concentration, then washed). Settings: tags: His6-TwinStrep-SUMO cleaved; N-terminal SNAP kept (SNAP-Surface 488); label: 3' end held by stalled T7 RNA polymerase.
B1 gave a Kd of 13.9 ± 1.2 nM.
B2 showed a Kd of 5.2 ± 0.9 nM.
For B3, the Kd was roughly 50 nM.
Binder B4 has a Kd of 4.9 ± 0.6 nM.
In the case of B5, the Kd is reported as 3.6 ± 1.3 nM.
B6 showed a Kd of 7.4 ± 1.8 nM.
B7 was tested, and the Kd was 16.6 ± 2.6 nM.
For B8, the Kd was 4.9 ± 0.7 nM.
In the case of B9, the Kd is reported as 8 ± 1.9 nM.
B10 showed a Kd of 16 ± 4 nM.
With B11 the Kd was 49 ± 21 nM.
Work on B12 yielded a Kd of 14 ± 4 nM.
B13 was tested, and the Kd was roughly 90 nM.
B14 was tested, and the Kd was 11 ± 4 nM.
B15 was tested, and the Kd was 19.3 ± 2.8 nM.
With B16 the Kd was 43 ± 15 nM.
Binder B17 has a Kd of 7.1 ± 0.6 nM.
B18 showed a Kd of 9.6 ± 1.7 nM.
Work on B19 yielded a Kd of 4.7 ± 1.1 nM.
B20 showed a Kd of roughly 70 nM.
B21 was tested, and the Kd was 8.2 ± 1.8 nM.
For B22, the Kd was 9.8 ± 0.4 nM.
With B23 the Kd was 7.1 ± 0.4 nM.
With B24 the Kd was 7.34 ± 0.35 nM.
